Source: article PMC12316933

Molecular target: CA09 N1 sNAp (stabilized recombinant N1 neuraminidase head of H1N1 A/California/07/2009) (Influenza A virus H1N1 A/California/07/2009)
Assay: cryo-EM structure

CA09 N1 sNAp (stabilized recombinant N1 neuraminidase head of H1N1 A/California/07/2009) (enzyme)
stoichiometry N: 4
